Reference: patent US10172917B2, “Targeted oesophageal administration of ZN-α2-glycoproteins (ZAG), methods and formulations thereof” (ASTON UNIVERSITY, priority 2012, dated 2019)

Legend:
ob/ob mice = test: Serum metabolite and insulin levels in ob/ob mice after ZAG administration; type: in vivo, mouse; details: ob/ob mice after ZAG administration
Source text: FCS (foetal calf serum) was from Biosera (Sussex, UK), while DMEM (Dulbecco's modified Eagles Medium) was from PAA (Somerset, UK) and Freestyle medium was purchased from Invitrogen (Paisley, UK). Hybond A nitrocellulose membranes and peroxidise—conjugated rabbit anti-mouse antibody were from GE Healthcare (Bucks, UK), while enhanced chemiluminescene (ECL) development kits were purchased from Thermo Scientific (Northumberland, UK). Mouse monoclonal antibodies to full-length human and mouse ZAG were from Santa Cruz Biotechnology (Santa Cruz, Calif. A mouse insulin ELISA kit was purchased from DRG (Marburg, Germany) and glucose measurements in both urine and plasma were made using a Boots (Nottingham, UK) glucose kit. L-[U-^14C] tyrosine (sp.act 16.7 GBqmmol^−1) was purchased from Perkin Elmer Ltd, (Cambridge, UK), while 2-[1-^14C] deoxy-D-glucose (sp.act 1.85 GBqmmol^−1) was from American Radiolabeled Chemicals (Cardiff, UK).
Obese (ob/ob) mice (average weight 65 g) were bred in a colony, and were kept in an air conditioned room at 22+2° C. with ad libitum feeding of a rat and mouse breeding diet (Special Diet Services, Witham, UK) and tap water. […] Animals were grouped (n=5) to receive either ZAG/PBS (50 μg day^−1), or PBS in their drinking water, the experiment was repeated three times after a power analysis was performed. […] The ZAG was replaced every 48 h. One group of mice receiving ZAG were also administered propanolol (40 mgkg^−1, p.o.) daily. The dose of ZAG was chosen to be the same as that previously administered i.v. (1), so that a direct comparison could be made, between the two routes. Body weight, food and water intake, urinary glucose excretion, and body temperature, determined by the use of a rectal thermometer (RS Components, Northants, UK), were measured daily. A glucose tolerance test was performed on day 3. Animals were fasted for 12 h, followed by oral administration of glucose (1 gkg^−1 in a volume of 100 μl by gavage). Blood samples were removed from the tail vein at 15, 30, 60 and 120 min and used for the measurement of glucose. Urinary glucose was measured by collecting 0.5 ml urine and testing glucose concentration using a Boots glucose monitor. After 8 days of treatment the animals were terminated by cervical dislocation, tissues were removed and rapidly frozen in liquid nitrogen, and maintained at −80° C. Future work would be to repeat this work in diet-induced animals as alternative to a model with gene alteration, although previous studies have shown the ob/ob mouse to be a good indicator of potential human treatments. Animal studies were conducted under Home Office Licence according to the UKCCCR Guidelines for the care and use of laboratory animals.

ZAG mRNA = test: ZAG gene expression in mouse tissues by RT-PCR; type: in vivo; details: mice treated with ZAG orally; compared to stomach, small intestine or colon
Experimental: Total RNA was extracted from tissues (50-120 mg) and adipocytes with Trizol. RNA samples used for real-time PCR were treated with a DNA-free kit (Ambion) to remove any genomic DNA. The RNA concentration was determined from the absorbance at 260 nm. 1 μg of total RNA of each sample was reverse transcribed to cDNA in a final volume of 20 μl by using a Reverse-iT first strand kit (ABgene). 1 μl of each cDNA sample was then amplified in a PCR mixture containing 0.02 mM of each primer and 1.1⋅Reddy Mix PCR Master Mix (ABgene) in a final volume of 25 μl. Human b-actin was used as a house keeping gene. The PCR products were sequenced commercially to confirm their identity (MWG Biotech). (7)
Relative ZAG mRNA levels were quantified using real-time PCR with an ABI Prism 7700 Sequence Detector (Applied Biosystems). Mouse β-actin mRNA levels were similarly measured and served as the reference gene. Primers and Taqman probes were designed using PrimerExpress software (Applied Biosystems).

B1: zinc-α2-glycoprotein (protein, listed as Homo sapiens)
chain: QENQDGRYSLTYIYTGLSKHVEDVPAFQALGSLNDLQFFRYNSKDRKSQPMGLWRQVEGMEDWKEDSQLQKAREDMETLKDIVEYYNDSNGSHVLQGRFGCEIENNRSSGAFWKYYYDGKDYIEFNKEIPAWVPFDPAAQITKQKWEAEPVYVQRAKAYLEEECPATLRKYLKYSKNILDRQDPPSVVVTSHQAPGEKKKLKCLAYDFYPGKIDVHWTRAGQVQEPELRGDVLHNGNGTYQSWVVVAVPPQDTAPYSCHVQHSSLAQPLVVPWEAS
notes: Recombinant human ZAG, a 41 kDa protein, produced by HEK293F cells transfected with pcDNA3.1 containing human ZAG
serum glucose level (ob/ob mice): decrease
serum glycerol level (ob/ob mice): elevation
serum insulin level (ob/ob mice): decrease
serum non-esterified fatty acids (ob/ob mice): decrease
serum triglycerides (ob/ob mice): decrease
ZAG mRNA in oesophageal tissue (ZAG mRNA): dramatically increased
